The target of assay [1] is EPHA2 fused to a fluorescent protein for FRET (EPHA2-mRuby3; EPHA2-mClover3) (human) (UniProt P29317). Description: FRET or BRET. A general note: Bioluminescence resonance energy transfer reports proximity on the nanometre scale.
The target of assay [2] is ROBO1 fused to a fluorescent protein for FRET (ROBO1-mClover3) (human) (UniProt Q9Y6N7). Description: FRET or BRET.

Our source for the N-FRET values is paper doi:10.1101/2020.04.09.034405.

Chain of UniProt Q9Y6N7 (Q9Y6N7 26-1651): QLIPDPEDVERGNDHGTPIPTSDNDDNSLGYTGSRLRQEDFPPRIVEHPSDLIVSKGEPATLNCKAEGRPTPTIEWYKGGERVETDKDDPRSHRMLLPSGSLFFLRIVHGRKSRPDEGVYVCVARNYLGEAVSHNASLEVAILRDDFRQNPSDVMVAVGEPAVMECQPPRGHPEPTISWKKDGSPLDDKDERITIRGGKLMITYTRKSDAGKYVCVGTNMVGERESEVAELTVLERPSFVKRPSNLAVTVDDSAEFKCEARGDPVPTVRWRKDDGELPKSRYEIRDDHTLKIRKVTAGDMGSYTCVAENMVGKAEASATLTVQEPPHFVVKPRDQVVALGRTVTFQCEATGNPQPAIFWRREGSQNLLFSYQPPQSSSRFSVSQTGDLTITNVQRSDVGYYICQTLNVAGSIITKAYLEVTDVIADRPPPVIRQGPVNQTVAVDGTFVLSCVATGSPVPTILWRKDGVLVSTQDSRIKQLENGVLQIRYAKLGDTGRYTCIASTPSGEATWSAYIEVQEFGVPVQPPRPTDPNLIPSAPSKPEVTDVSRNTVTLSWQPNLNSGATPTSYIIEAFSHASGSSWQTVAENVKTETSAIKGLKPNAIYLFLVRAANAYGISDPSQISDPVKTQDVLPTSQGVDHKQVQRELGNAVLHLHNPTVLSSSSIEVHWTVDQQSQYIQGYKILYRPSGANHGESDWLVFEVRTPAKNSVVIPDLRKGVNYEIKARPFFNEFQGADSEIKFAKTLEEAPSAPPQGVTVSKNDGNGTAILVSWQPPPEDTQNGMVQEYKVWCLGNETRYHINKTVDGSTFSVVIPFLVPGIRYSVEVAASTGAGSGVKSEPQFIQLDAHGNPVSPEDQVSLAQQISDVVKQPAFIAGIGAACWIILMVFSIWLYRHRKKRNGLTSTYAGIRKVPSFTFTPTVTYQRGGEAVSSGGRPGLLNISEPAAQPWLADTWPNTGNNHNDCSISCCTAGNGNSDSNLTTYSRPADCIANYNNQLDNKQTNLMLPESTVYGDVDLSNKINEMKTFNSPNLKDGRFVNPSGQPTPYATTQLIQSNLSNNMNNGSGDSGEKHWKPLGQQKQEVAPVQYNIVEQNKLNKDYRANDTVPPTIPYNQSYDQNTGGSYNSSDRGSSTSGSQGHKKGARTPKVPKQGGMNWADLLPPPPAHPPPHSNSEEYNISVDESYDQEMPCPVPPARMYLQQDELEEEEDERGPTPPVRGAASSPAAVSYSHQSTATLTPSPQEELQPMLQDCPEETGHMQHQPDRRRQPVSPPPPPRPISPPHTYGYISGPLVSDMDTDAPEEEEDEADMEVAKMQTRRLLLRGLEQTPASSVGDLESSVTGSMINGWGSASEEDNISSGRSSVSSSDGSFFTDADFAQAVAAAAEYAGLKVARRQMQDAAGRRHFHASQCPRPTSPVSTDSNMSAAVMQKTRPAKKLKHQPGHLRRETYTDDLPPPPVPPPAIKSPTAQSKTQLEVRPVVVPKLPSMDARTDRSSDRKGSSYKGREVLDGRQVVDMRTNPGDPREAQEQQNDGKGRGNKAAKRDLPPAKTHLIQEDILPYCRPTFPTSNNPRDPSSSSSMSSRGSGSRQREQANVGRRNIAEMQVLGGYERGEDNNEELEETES

As to “EPHA2 fused to a fluorescent protein for FRET (EPHA2-mRuby3; EPHA2-mClover3) (from UniProt P29317 24-976) (receptor)”, the N-FRET was determined as 0.347 in assay [1] and 0.234 in assay [2].
